Results from patent publication US12281340B2, “Method of producing N-acyl-amino group-containing compound” (AJINOMOTO CO., INC., priority 2018, dated 2025).
Blank lines part the entries; values can stand above or below the molecule they belong to.

Assays:
Format in all cases: biochemical
[1] = Quantification of produced N-acylamino acid (UV 210 nm) using purified acylamino acid synthetase; details: 5 mM sodium fatty acid, 200 μg/mL enzyme, 25° C., 24 hours
Experimental: 0.1 mL of a reaction solution containing 50 mM Tris-HCl, 5 mM amino acid, 5 mM sodium fatty acid, 10 mM ATP, 10 mM MgCl2, 1 mM DTT, 200 μg/mL of the purified enzyme, pH 8.0 was incubated at 25° C. for 24 hours. As amino acids, L-Asp was used in AtGH3-6, OsGH3-8, AtGH3-5, AtGH3-12, and Gly or L-Ala was used in CfHP. After completion of the reaction, 0.4 mL of the reaction stop solution (1% (v/v) phosphoric acid, 75% (v/v) methanol) was added, and the mixture was filtrated through the filter followed by being subjected to the UPLC-MS analysis to quantify the produced N-acylamino acid by detection at UV 210 nm. The condition for the UPLC-MS analysis is as descried in Example 2. As a result of the analysis, 3.9 mM of Nα-capryloyl-L-aspartic acid, 4.5 mM of Nα-caprinoyl-L-aspartic acid and 2.2 mM of Nα-lauroyl-L-aspartic acid were detected when AtGH3-6 was used; 4.3 mM of Nα-capryloyl-L-aspartic acid, 4.6 mM of Nα-caprinoyl-L-aspartic acid and 3.5 mM of Nα-lauroyl-L-aspartic acid were detected when OsGH3-8 was used; 4.1 mM of Nα-capryloyl-L-aspartic acid, 4.6 mM of Nα-caprinoyl-L-aspartic acid and 2.5 mM of Nα-lauroyl-L-aspartic acid were detected when AtGH3-5 was used; 1.6 mM of Nα-capryloyl-L-aspartic acid, 0.6 mM of Nα-caprinoyl-L-aspartic acid and 0.2 mM of Nα-lauroyl-L-aspartic acid were detected when AtGH3-12 was used; 4.5 mM of Nα-capryloylglycine, 4.6 mM of Nα-caprinoylglycine, 0.1 mM of Nα-lauroylglycine, 3.1 mM of Nα-capryloyl-L-alanine, 3.6 mM of Nα-caprinoyl-L-alanine and 0.4 mM of Nα-lauroyl-L-alanine were detected when CfHP was used.

[2] = Synthesis of N-caprinoylamino acid using purified acylamino acid synthetase, UPLC-MS detection; set-up: key: +: Detected; −: Not detected; details: +ATP
Outline: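 Purified enzyme (50 μg) with 5 mM amino acid, 5 mM sodium caprate, 10 mM ATP, 10 mM MgCl2, 1 mM DTT in Tris-HCl pH 8.0, 24 h at 25° C; product detected by UPLC-MS (ESI-negative) as the N-caprinoyl amino acid mass signal.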

[3] = Synthesis of N-lauroylamino acid / N-lauroylamino acid derivative using purified acylamino acid synthetase, UPLC-MS detection; set-up: key: +: Detected; −: Not detected; details: +ATP
[4] = as above; set-up: key: +: Detected; −: Not detected; details: +ATP; remark: listed apart in the source
Experimental: 0.2 mL of a reaction solution containing 50 mM Tris-HCl, 5 mM amino acid or D-amino acid derivative, 5 mM sodium laurate, 10 mM ATP, 10 mM MgCl2, 1 mM DTT, 200 μg/mL of the purified enzyme, pH 8.0 was incubated at 25° C. for 24 hours. After completion of the reaction, 0.8 mL of the reaction stop solution (1% (v/v) phosphoric acid, 75% (v/v) methanol) was added, and the mixture was filtrated through the filter followed by being subjected to the UPLC-MS analysis to detect a signal of a molecular weight corresponding to an N-lauroyl-amino acid or an N-lauroyl-amino acid derivative. The condition for the UPLC-MS analysis is as described in Example 2.
As a result of the UPLC-MS analysis, the signal of the molecular weight corresponding to the N-lauroyl-amino acid or the N-lauroyl-amino acid derivative was confirmed in the reaction solution containing the enzyme in combination with the amino acid or the amino acid derivative shown in Table 5 below.

[5] = substrates GABA and sodium caprate
[6] = substrates Gly and sodium caprate
[7] = substrates L-Ala and sodium caprate
[8] = substrates L-Arg and sodium caprate
[9] = substrates L-Asn and sodium caprate
[10] = substrates L-Asp and sodium caprate
[11] = substrates L-Cys and sodium caprate
[12] = substrates L-Gln and sodium caprate
[13] = substrates L-Glu and sodium caprate
[14] = substrates L-His and sodium caprate
[15] = substrates L-Ile and sodium caprate
[16] = substrates L-Leu and sodium caprate
[17] = substrates L-Lys and sodium caprate
[18] = substrates L-Met and sodium caprate
[19] = substrates L-Phe and sodium caprate
[20] = substrates L-Pro and sodium caprate
[21] = substrates L-Ser and sodium caprate
[22] = substrates L-Thr and sodium caprate
[23] = substrates L-Trp and sodium caprate
[24] = substrates L-Tyr and sodium caprate
[25] = substrates L-Val and sodium caprate
[26] = substrates β-Ala and sodium caprate

B1: CfHP: hypothetical protein from Cystobacter fuscus (GH3 protein), His-tagged (protein, listed as Cystobacter fuscus)
chain: MQAAGRRDKQRFIEQTRHVARVNVDTLRAILQHNRDTDFGRRHGFASLRTVEDFQRALPVSTYEPFRPYMERIARGEQNVLTADRVEYLGITSGTTGQRKLLPVSRPHLENMRRTMMIGRAVVTEKVPAARRPSRGMILMNAVLRERSEGGLLTGALTAISTHSMGRAASFAFTSPPEAFRLRKHADALYLHLLFGLRERELGTLMAPFASGLLDMVHLLERRGADLVDDIARGVLRPELDLEPEQRRLLQSRLLPDPERAREVSQALEQGPHGLLRRLWPRLAYVSSITGASFSLYTRQLTPYLEGVPLSAASYVSTEGILGVPLELEQAVYCLMVGMAFFEFIPERELDAESPTTLLPEQLVEGEAYEVVLTTQAGLYRYRLGDVVRIVGRYHEAPLMEFLYRRGALLNLMGEKTSEHAARLALEQALATEGLLPADYSVVEETETLPGRYALFVELQEGARPQGAPEQLSRALEEALCRTNPFYEVIRRSERLGAAQLHRVEPGTFQALRDVLVQRGASPTQVKVPRVVRDAELQGLLRQRRVTG
modifications: His-tag
notes: hypothetical protein from Cystobacter fuscus (GH3 protein), His-tagged
Nα-caprinoylglycine detected ([1]; 5 mM Gly): 4.6 mM | Nα-capryloylglycine detected ([1]; 5 mM Gly): 4.5 mM | Nα-lauroylglycine detected ([1]; 5 mM Gly): 0.1 mM | Nα-caprinoyl-L-alanine detected ([1]; 5 mM L-Ala): 3.6 mM | Nα-capryloyl-L-alanine detected ([1]; 5 mM L-Ala): 3.1 mM | Nα-lauroyl-L-alanine detected ([1]; 5 mM L-Ala): 0.4 mM | signal of molecular weight corresponding to N-caprinoyl amino acid [2, 5]: + | signal of molecular weight corresponding to N-caprinoyl amino acid [2, 6]: + | signal of molecular weight corresponding to N-caprinoyl amino acid [2, 7]: + | signal of molecular weight corresponding to N-caprinoyl amino acid [2, 8]: + | signal of molecular weight corresponding to N-caprinoyl amino acid [2, 9]: + | signal of molecular weight corresponding to N-caprinoyl amino acid [2, 10]: + | signal of molecular weight corresponding to N-caprinoyl amino acid [2, 11]: + | signal of molecular weight corresponding to N-caprinoyl amino acid [2, 12]: + | signal of molecular weight corresponding to N-caprinoyl amino acid [2, 13]: + | signal of molecular weight corresponding to N-caprinoyl amino acid [2, 14]: + | signal of molecular weight corresponding to N-caprinoyl amino acid [2, 15]: + | signal of molecular weight corresponding to N-caprinoyl amino acid [2, 16]: + | signal of molecular weight corresponding to N-caprinoyl amino acid [2, 17]: + | signal of molecular weight corresponding to N-caprinoyl amino acid [2, 18]: + | signal of molecular weight corresponding to N-caprinoyl amino acid [2, 19]: + | signal of molecular weight corresponding to N-caprinoyl amino acid [2, 20]: + | signal of molecular weight corresponding to N-caprinoyl amino acid [2, 21]: + | signal of molecular weight corresponding to N-caprinoyl amino acid [2, 22]: + | signal of molecular weight corresponding to N-caprinoyl amino acid [2, 23]: + | signal of molecular weight corresponding to N-caprinoyl amino acid [2, 24]: + | signal of molecular weight corresponding to N-caprinoyl amino acid [2, 25]: + | signal of molecular weight corresponding to N-caprinoyl amino acid [2, 26]: +

signal of molecular weight corresponding to N-lauroyl amino acid derivative ([3]; substrates Sarcosine and sodium laurate): + | signal of molecular weight corresponding to N-lauroyl amino acid derivative ([3]; substrates Taurine and sodium laurate): + | Nα-caprinoyl-L-aspartic acid detected ([1]; 5 mM L-Asp): 4.5 mM | Nα-capryloyl-L-aspartic acid detected ([1]; 5 mM L-Asp): 3.9 mM | Nα-lauroyl-L-aspartic acid detected ([1]; 5 mM L-Asp): 2.2 mM | signal of molecular weight corresponding to N-caprinoyl amino acid [2, 5]: + | signal of molecular weight corresponding to N-caprinoyl amino acid [2, 6]: + | signal of molecular weight corresponding to N-caprinoyl amino acid [2, 7]: + | signal of molecular weight corresponding to N-caprinoyl amino acid [2, 8]: + | signal of molecular weight corresponding to N-caprinoyl amino acid [2, 9]: + | signal of molecular weight corresponding to N-caprinoyl amino acid [2, 10]: + | signal of molecular weight corresponding to N-caprinoyl amino acid [2, 11]: + | signal of molecular weight corresponding to N-caprinoyl amino acid [2, 12]: + | signal of molecular weight corresponding to N-caprinoyl amino acid [2, 13]: + | signal of molecular weight corresponding to N-caprinoyl amino acid [2, 14]: + | signal of molecular weight corresponding to N-caprinoyl amino acid [2, 15]: + | signal of molecular weight corresponding to N-caprinoyl amino acid [2, 16]: + | signal of molecular weight corresponding to N-caprinoyl amino acid [2, 17]: + | signal of molecular weight corresponding to N-caprinoyl amino acid [2, 18]: + | signal of molecular weight corresponding to N-caprinoyl amino acid [2, 19]: + | signal of molecular weight corresponding to N-caprinoyl amino acid [2, 20]: + | signal of molecular weight corresponding to N-caprinoyl amino acid [2, 21]: + | signal of molecular weight corresponding to N-caprinoyl amino acid [2, 22]: + | signal of molecular weight corresponding to N-caprinoyl amino acid [2, 23]: + | signal of molecular weight corresponding to N-caprinoyl amino acid [2, 24]: + | signal of molecular weight corresponding to N-caprinoyl amino acid [2, 25]: + | signal of molecular weight corresponding to N-caprinoyl amino acid [2, 26]: + | signal of molecular weight corresponding to N-lauroyl amino acid ([4]; substrates Gly and sodium laurate): + | signal of molecular weight corresponding to N-lauroyl amino acid ([4]; substrates L-Ala and sodium laurate): + | signal of molecular weight corresponding to N-lauroyl amino acid ([4]; substrates L-Arg and sodium laurate): + | signal of molecular weight corresponding to N-lauroyl amino acid ([4]; substrates L-Asp and sodium laurate): + | signal of molecular weight corresponding to N-lauroyl amino acid ([4]; substrates L-Glu and sodium laurate): + | signal of molecular weight corresponding to N-lauroyl amino acid ([4]; substrates L-Lys and sodium laurate): + | signal of molecular weight corresponding to N-lauroyl amino acid ([4]; substrates L-Thr and sodium laurate): + | signal of molecular weight corresponding to N-lauroyl amino acid ([4]; substrates β-Ala and sodium laurate): +
B2: AtGH3-6: indole-3-acetic acid-amido synthetase GH3.6 from Arabidopsis thaliana, expressed in E. coli with N-terminal His-tag (protein, listed as Arabidopsis thaliana)
chain: MPEAPKIAALEVSDESLAEKNKNKLQFIEDVTTNADDVQRRVLEEILSRNADVEYLKRHGLEGRTDRETFKHIMPVVTYEDIQPEINRIANGDKSQVLCSNPISEFLTSSGTSGGERKLMPTIEEELDRRSLLYSLLMPVMDQFVPGLDKGKGMYFLFIKSESKTPGGLPARPVLTSYYKSSHFKNRPYDPYTNYTSPNQTILCSDSYQSMYSQMLCGLCQHKEVLRVGAVFASGFIRAIKFLEKHWPELARDIRTGTLSSEITDSSVREAVGEILKPDPKLADFVESECRKTSWQGIITRLWPNTKYVDVIVTGTMSQYIPTLDYYSNGLPLVCTMYASSECYFGVNLRPLCKPSEVSYTLIPNMAYFEFLPVHRNSGVTSSISLPKALTEKEQQELVDLVDVKLGQEYELVVTTYAGLYRYRVGDVLSVAGFKNNAPQFSFICRKNVVLSIDSDKTDEVELQNAVKNAVTHLVPFDASLSEYTSYADTSSIPGHYVLFWELCLNGNTPIPPSVFEDCCLTIEESLNSVYRQGRVSDKSIGPLEIKMVESGTFDKLMDYAISLGASINQYKTPRCVKFAPIIELLNSRVVDSYFSPKCPKWSPGHKQWGSN
modifications: N-terminal His-tag
notes: indole-3-acetic acid-amido synthetase GH3.6 from Arabidopsis thaliana, expressed in E. coli with N-terminal His-tag
